Patent US20230002480A1

Assays:
Assay in all cases: cell-based or functional assay
[1] = target: HIV-1 Env of pseudovirus P1981_C5_3 (clade G) (HIV-1)
[2] = target: HIV-1 Env of pseudovirus T257-31 (HIV-1)
[3] = target: HIV-1 Env of pseudovirus 6545.v4.c1 (clade AC) (HIV-1)
[4] = target: HIV-1 Env of pseudovirus 3103.v3.c10 (clade ACD) (HIV-1)
[5] = target: HIV-1 Env of pseudovirus 231966.c02 (clade D) (HIV-1)
[6] = target: HIV-1 Env of pseudovirus P0402_c2_11 (clade G) (HIV-1)
[7] = target: HIV-1 Env of pseudovirus 3415.v1.c1 (HIV-1)
[8] = target: HIV-1 Env of pseudovirus X2088_c9 (clade G) (HIV-1)
[9] = target: HIV-1 Env of pseudovirus 3301.v1.c24 (clade AC) (HIV-1)
[10] = target: HIV-1 Env of pseudovirus X1632_S2_B10 (clade G) (HIV-1)
[11] = target: HIV-1 Env of pseudovirus 89-F1_2_25 (clade CD) (HIV-1)
[12] = target: HIV-1 Env of pseudovirus CNE20 (HIV-1)
[13] = target: HIV-1 Env of pseudovirus HIV-001428-2.42 (HIV-1)
[14] = target: HIV-1 Env of pseudovirus X2131_C1_B5 (clade G) (HIV-1)
[15] = target: HIV-1 Env of pseudovirus 6811.v7.c18 (clade CD) (HIV-1)
[16] = target: HIV-1 Env of pseudovirus 6540.v4.c1 (clade AC) (HIV-1)
[17] = target: HIV-1 Env of pseudovirus 0815.v3.c3 (clade ACD) (HIV-1)
[18] = target: HIV-1 Env of pseudovirus 3016.v5.c45 (clade D) (HIV-1)
[19] = target: HIV-1 Env of pseudovirus R1166.c01 (clade CRF01_AE) (HIV-1)
[20] = target: HIV-1 Env of pseudovirus 6041.v3.c23 (clade AC) (HIV-1)
[21] = target: HIV-1 Env of pseudovirus 231965.c01 (clade D) (HIV-1)
[22] = target: HIV-1 Env of pseudovirus 6240_08_TA5_4622 (HIV-1)
[23] = target: HIV-1 Env of pseudovirus 9004SS_A3_4 (HIV-1)
[24] = target: HIV-1 Env of pseudovirus 6480.v4.c25 (clade CD) (HIV-1)
[25] = target: HIV-1 Env of pseudovirus 6952.v1.c20 (clade CD) (HIV-1)
[26] = target: HIV-1 Env of pseudovirus A07412M1.vrc12 (clade D) (HIV-1)
[27] = target: HIV-1 Env of pseudovirus 3817.v2.c59 (clade CD) (HIV-1)

Work on 10-1074 (antibody) yielded an IC50, titer in TZM.bl cells [1] of 0.005 µg/mL, an IC80, titer in TZM.bl cells [1] of 0.017 µg/mL and an IC50, titer in TZM.bl cells [2] greater than 50 µg/mL. The IC80, titer in TZM.bl cells [2] was greater than 50 µg/mL, the IC50, titer in TZM.bl cells [3] was greater than 50 µg/mL and the IC80, titer in TZM.bl cells [3] was greater than 50 µg/mL. It also gave an IC50, titer in TZM.bl cells [4] of 0.037 µg/mL, an IC80, titer in TZM.bl cells [4] of 0.101 µg/mL and an IC50, titer in TZM.bl cells [5] greater than 50 µg/mL. The IC80, titer in TZM.bl cells [5] was greater than 50 µg/mL, the IC50, titer in TZM.bl cells [6] was 0.012 µg/mL and the IC80, titer in TZM.bl cells [6] was 0.039 µg/mL. The IC50, titer in TZM.bl cells [7] was greater than 50 µg/mL, the IC80, titer in TZM.bl cells [7] was greater than 50 µg/mL and the IC50, titer in TZM.bl cells [8] was 0.003 µg/mL. It also gave an IC80, titer in TZM.bl cells [8] of 0.014 µg/mL, an IC50, titer in TZM.bl cells [9] of 0.013 µg/mL and an IC80, titer in TZM.bl cells [9] of 0.042 µg/mL. It also gave an IC50, titer in TZM.bl cells [10] greater than 50 µg/mL, an IC80, titer in TZM.bl cells [10] greater than 50 µg/mL and an IC50, titer in TZM.bl cells [11] greater than 50 µg/mL. It also gave an IC80, titer in TZM.bl cells [11] greater than 50 µg/mL, an IC50, titer in TZM.bl cells [12] of less than 0.001 µg/mL and an IC80, titer in TZM.bl cells [12] of 0.005 µg/mL. For the same substance, the IC50, titer in TZM.bl cells [13] was 0.044 µg/mL, the IC80, titer in TZM.bl cells [13] was 0.261 µg/mL and the IC50, titer in TZM.bl cells [14] was 0.016 µg/mL. It also gave an IC80, titer in TZM.bl cells [14] of 0.064 µg/mL, an IC50, titer in TZM.bl cells [15] of 0.002 µg/mL and an IC80, titer in TZM.bl cells [15] of 0.01 µg/mL. For the same substance, the IC50, titer in TZM.bl cells [16] was greater than 50 µg/mL, the IC80, titer in TZM.bl cells [16] was greater than 50 µg/mL and the IC50, titer in TZM.bl cells [17] was 0.03 µg/mL. For the same substance, the IC80, titer in TZM.bl cells [17] was 0.138 µg/mL, the IC50, titer in TZM.bl cells [18] was greater than 50 µg/mL and the IC80, titer in TZM.bl cells [18] was greater than 50 µg/mL. For the same substance, the IC50, titer in TZM.bl cells [19] was greater than 50 µg/mL, the IC80, titer in TZM.bl cells [19] was greater than 50 µg/mL and the IC50, titer in TZM.bl cells [20] was greater than 50 µg/mL. For the same substance, the IC80, titer in TZM.bl cells [20] was greater than 50 µg/mL, the IC50, titer in TZM.bl cells [21] was greater than 50 µg/mL and the IC80, titer in TZM.bl cells [21] was greater than 50 µg/mL. The IC50, titer in TZM.bl cells [22] was 0.068 µg/mL, the IC80, titer in TZM.bl cells [22] was 0.306 µg/mL and the IC50, titer in TZM.bl cells [23] was 0.011 µg/mL. For the same substance, the IC80, titer in TZM.bl cells [23] was 0.03 µg/mL, the IC50, titer in TZM.bl cells [24] was 0.009 µg/mL and the IC80, titer in TZM.bl cells [24] was 0.041 µg/mL. It also gave an IC50, titer in TZM.bl cells [25] of 0.037 µg/mL, an IC80, titer in TZM.bl cells [25] of 0.138 µg/mL and an IC50, titer in TZM.bl cells [26] of less than 0.001 µg/mL. It also gave an IC80, titer in TZM.bl cells [26] of 0.048 µg/mL, an IC50, titer in TZM.bl cells [27] of 3.15 µg/mL and an IC80, titer in TZM.bl cells [27] of 14.9 µg/mL.
